One molecule from CN115746140A (SHENZHEN KANGTI BIOMEDICAL TECH CO LTD, dated 2023) can be followed below.

For this experiment, the target named is T1, PCSK9蛋白 (Proprotein convertase subtilisin kexin type 9) (UniProt Q8NBP7 31-692, limits assumed).
T1 construct: also called PCSK9抗原
The experiment can be described thus: SPR; immobilised partner and format not stated. In general terms: SPR reads the build-up and loss of mass on a sensor chip optically.

T1 sequence (Q8NBP7 31-692 limits assumed): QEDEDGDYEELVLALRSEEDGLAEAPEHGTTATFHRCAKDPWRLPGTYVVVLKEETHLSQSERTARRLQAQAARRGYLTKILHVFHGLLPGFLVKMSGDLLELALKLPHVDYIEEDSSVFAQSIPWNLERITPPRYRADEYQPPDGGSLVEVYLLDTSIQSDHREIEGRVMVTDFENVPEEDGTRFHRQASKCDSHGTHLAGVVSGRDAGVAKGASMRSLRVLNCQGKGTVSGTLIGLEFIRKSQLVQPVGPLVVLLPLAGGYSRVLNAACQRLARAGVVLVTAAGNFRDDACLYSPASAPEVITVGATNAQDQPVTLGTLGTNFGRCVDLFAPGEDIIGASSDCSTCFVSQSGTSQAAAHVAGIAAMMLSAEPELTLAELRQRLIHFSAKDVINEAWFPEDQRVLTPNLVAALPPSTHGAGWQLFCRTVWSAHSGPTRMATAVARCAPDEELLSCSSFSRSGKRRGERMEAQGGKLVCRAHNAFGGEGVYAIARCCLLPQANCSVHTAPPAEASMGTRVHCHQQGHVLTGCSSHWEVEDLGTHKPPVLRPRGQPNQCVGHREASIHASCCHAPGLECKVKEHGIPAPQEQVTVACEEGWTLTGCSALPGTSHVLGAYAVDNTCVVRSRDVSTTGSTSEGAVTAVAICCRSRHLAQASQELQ

B1: 纳米抗体P2-11D (anti-PCSK9 nanobody P2-11D) (VHH)
VHH: DVQLQESGGGLVQPGGSLRLSCAASGFTFRAYDMGWYRQAPGKQRDLVAVISSSGGTPNYADSVKDRFTISRDNDKNTVYLQMNSLKSEDTALYYCNARWESSAYERDYWGRGTQVTVSS
notes: Monovalent alpaca VHH, expressed from pET22b in E. coli BL21 and purified on Ni resin and by size exclusion; also called 抗PCSK9单域重链抗体; 抗PCSK9的纳米抗体
For orientation: Kd means the constant that tells how readily two partners part at equilibrium. A low value points to higher affinity. By koff is commonly meant the rate constant with which the complex falls apart. A high value points to a short-lived complex. Usually kon stands for the second-order rate constant of association. The low end stands for slow association, the high end for fast association. B1: the Kd was determined as 70 nM, the koff turned out to be 0.00921 s⁻¹ and the on-rate (kon) is 130000 M⁻¹ s⁻¹.
